Here are results for two molecules from paper PMC8096241.

One series deals with T1, CapR (Vibrio cholerae phage satellite PLE1, UniProt M1R2X8 1-139).
T1 sequence: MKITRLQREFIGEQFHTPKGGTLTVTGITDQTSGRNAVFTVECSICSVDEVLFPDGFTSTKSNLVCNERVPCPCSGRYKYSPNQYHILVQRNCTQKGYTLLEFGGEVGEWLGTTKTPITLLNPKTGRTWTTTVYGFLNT
The experiment in a line: EMSA. On the technique in general: In EMSA bound probe runs differently from free probe, usually more slowly.

Series [1] addresses T2, CapR C43/46/72/74S (4xmut) (Vibrio cholerae phage satellite PLE1, UniProt M1R2X8 1-139, C43S;C46S;C72S;C74S).
T2 sequence: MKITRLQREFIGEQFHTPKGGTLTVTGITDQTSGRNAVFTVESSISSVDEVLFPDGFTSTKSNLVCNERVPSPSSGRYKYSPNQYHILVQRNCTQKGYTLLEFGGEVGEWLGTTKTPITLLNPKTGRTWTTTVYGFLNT
The experiment in a line: EMSA.

B1: probe D (dsDNA)
DNA 1: AATAATCGTTCGCAACAACAAATATTACAATTATTAATGCAAACGACATATTTATTTAAATTA
DNA 2: TAATTTAAATAAATATGTCGTTTGCATTAATAATTGTAATATTTGTTGTTGCGAACGATTATT
As to B1, the binding result with CapR is on record as “binds”; in series [1], “no binding”.

B2: probe F (dsDNA)
DNA 1: AATAATCGTTCGCAACAACAAATATTACAAT
DNA 2: ATTGTAATATTTGTTGTTGCGAACGATTATT
Consider B2, for which, in the series with CapR, the binding result is recorded as “binds”.
